In article PMC10174300:

Target: T cell immunoglobulin-3 (TIM-3) (human (endogenous in CD3+ T cells from PBMCs)) (UniProt Q8TDQ0)

Sequence of Galectin-9 (O00182 whole entry): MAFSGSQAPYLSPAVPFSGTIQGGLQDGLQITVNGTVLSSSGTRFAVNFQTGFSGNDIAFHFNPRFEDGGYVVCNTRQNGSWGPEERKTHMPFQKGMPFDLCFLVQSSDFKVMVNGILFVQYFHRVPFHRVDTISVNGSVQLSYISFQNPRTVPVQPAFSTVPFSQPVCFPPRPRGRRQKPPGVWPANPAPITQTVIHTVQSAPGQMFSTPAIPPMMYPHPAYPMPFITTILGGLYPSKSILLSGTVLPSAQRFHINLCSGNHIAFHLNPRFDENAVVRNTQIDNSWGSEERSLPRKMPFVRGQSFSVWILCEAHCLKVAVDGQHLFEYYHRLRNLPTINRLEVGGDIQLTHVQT

T cell proliferation (DELFIA, TRF intensity) of activated CD3+ T cells treated with Galectin-9 at 55.6 nM, against activated T cells without Galectin-9: 50%
Substance: Galectin-9 (from UniProt O00182 1-355) (ligand)
